Starred links: 1 amine or outer side, 2 acyl side, 3 side chain; linkers in the order of their positions; H or OH if unused. Non-standard residues stand in square brackets, D forms with d. No end group written: not given here. *: point of attachment. Trp(7-Me) = Cc1cccc2c(C[C@H](N)C(=O)O)c[nH]c12; C20 diacid = O=C(O)CCCCCCCCCCCCCCCCCCC(=O)*; d(γGlu) = O=C(O)[C@@H](CCC(=O)[*:2])N[*:1]; C18 diacid = O=C(O)CCCCCCCCCCCCCCCCC(=O)*; γGlu = O=C(O)[C@H](CCC(=O)[*:2])N[*:1]; Palmitoyl = CCCCCCCCCCCCCCCC(=O)*; 3Pal = N[C@@H](Cc1cccnc1)C(=O)O; Nle = CCCC[C@H](N)C(=O)O; AEEA = NCCOCCOCC(=O)O; Aib = CC(C)(N)C(=O)O; βAla = NCCC(=O)O; Sar = CNCC(=O)O

The values that follow come from US20260176319A1 (KALLYOPE, published 2026).

In this assay the target is human GRP receptor (human, UniProt P30550 1-384). The assay can be described thus: cell-based or functional assay.
Chain of human GRP receptor (P30550 whole entry): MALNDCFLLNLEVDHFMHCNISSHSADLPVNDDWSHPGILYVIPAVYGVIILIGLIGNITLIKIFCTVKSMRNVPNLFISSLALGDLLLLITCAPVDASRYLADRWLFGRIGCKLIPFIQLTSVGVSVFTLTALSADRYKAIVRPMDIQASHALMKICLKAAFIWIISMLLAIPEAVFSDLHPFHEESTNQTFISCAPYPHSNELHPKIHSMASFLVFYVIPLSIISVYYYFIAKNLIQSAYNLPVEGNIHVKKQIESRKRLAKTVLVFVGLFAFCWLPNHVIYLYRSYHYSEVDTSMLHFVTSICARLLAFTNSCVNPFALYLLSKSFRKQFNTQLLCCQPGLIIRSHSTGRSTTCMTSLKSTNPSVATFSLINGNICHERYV

B1: Peptide 245 (peptide)
peptide: {C20 diacid}-[γGlu][γGlu][AEEA][AEEA][dF]N[3Pal]WAV[βAla]HL[Nle]-NH2
SMILES: CCCC[C@H](NC(=O)[C@H](CC(C)C)NC(=O)[C@H](Cc1c[nH]cn1)NC(=O)CCNC(=O)[C@@H](NC(=O)[C@H](C)NC(=O)[C@H](Cc1c[nH]c2ccccc12)NC(=O)[C@H](Cc1cccnc1)NC(=O)[C@H](CC(N)=O)NC(=O)[C@@H](Cc1ccccc1)NC(=O)COCCOCCNC(=O)COCCOCCNC(=O)CC[C@H](NC(=O)CC[C@H](NC(=O)CCCCCCCCCCCCCCCCCCC(=O)O)C(=O)O)C(=O)O)C(C)C)C(N)=O
Take B1: the “hIP1 GRPR EC50” value was 11.9 nM.
The same measure for {C20 diacid}-[γGlu][γGlu][AEEA][AEEA]GEH[Trp(7-Me)]AV[BABA]HL[Nle]-NH2 [Peptide 247]: 1.8 nM.

B2: Peptide 252 (peptide)
peptide: {C20 diacid}-[γGlu][γGlu][AEEA][AEEA]EGRH[Trp(7-Me)]AV[βAla]HL[Nle]-NH2
SMILES: CCCC[C@H](NC(=O)[C@H](CC(C)C)NC(=O)[C@H](Cc1c[nH]cn1)NC(=O)CCNC(=O)[C@@H](NC(=O)[C@H](C)NC(=O)[C@H](Cc1c[nH]c2c(C)cccc12)NC(=O)[C@H](Cc1c[nH]cn1)NC(=O)[C@H](CCCNC(=N)N)NC(=O)CNC(=O)[C@H](CCC(=O)O)NC(=O)COCCOCCNC(=O)COCCOCCNC(=O)CC[C@H](NC(=O)CC[C@H](NC(=O)CCCCCCCCCCCCCCCCCCC(=O)O)C(=O)O)C(=O)O)C(C)C)C(N)=O
Take B2: the “hIP1 GRPR EC50” value amounted to 7.5 nM.

B3: Peptide 244 (peptide)
peptide: {C20 diacid}-[γGlu][γGlu][AEEA][AEEA]GRHWAV[dA]HL[Nle]-NH2
SMILES: CCCC[C@H](NC(=O)[C@H](CC(C)C)NC(=O)[C@H](Cc1c[nH]cn1)NC(=O)[C@@H](C)NC(=O)[C@@H](NC(=O)[C@H](C)NC(=O)[C@H](Cc1c[nH]c2ccccc12)NC(=O)[C@H](Cc1c[nH]cn1)NC(=O)[C@H](CCCNC(=N)N)NC(=O)CNC(=O)COCCOCCNC(=O)COCCOCCNC(=O)CC[C@H](NC(=O)CC[C@H](NC(=O)CCCCCCCCCCCCCCCCCCC(=O)O)C(=O)O)C(=O)O)C(C)C)C(N)=O
Consider B3, for which the “hIP1 GRPR EC50” value is 2.8 nM.

B4: Peptide 241 (peptide)
peptide: {C20 diacid}-[γGlu][AEEA][AEEA]GQHWAV[βAla]HL[Nle]-NH2
SMILES: CCCC[C@H](NC(=O)[C@H](CC(C)C)NC(=O)[C@H](Cc1c[nH]cn1)NC(=O)CCNC(=O)[C@@H](NC(=O)[C@H](C)NC(=O)[C@H](Cc1c[nH]c2ccccc12)NC(=O)[C@H](Cc1c[nH]cn1)NC(=O)[C@H](CCC(N)=O)NC(=O)CNC(=O)COCCOCCNC(=O)COCCOCCNC(=O)CC[C@H](NC(=O)CCCCCCCCCCCCCCCCCCC(=O)O)C(=O)O)C(C)C)C(N)=O
Regarding B4, the “hIP1 GRPR EC50” value was 2 nM.

B5: Peptide 254 (peptide)
peptide: {C20 diacid}-[γGlu][γGlu][AEEA][AEEA]RGRH[Trp(7-Me)]AV[βAla]HL[Nle]-NH2
SMILES: CCCC[C@H](NC(=O)[C@H](CC(C)C)NC(=O)[C@H](Cc1c[nH]cn1)NC(=O)CCNC(=O)[C@@H](NC(=O)[C@H](C)NC(=O)[C@H](Cc1c[nH]c2c(C)cccc12)NC(=O)[C@H](Cc1c[nH]cn1)NC(=O)[C@H](CCCNC(=N)N)NC(=O)CNC(=O)[C@H](CCCNC(=N)N)NC(=O)COCCOCCNC(=O)COCCOCCNC(=O)CC[C@H](NC(=O)CC[C@H](NC(=O)CCCCCCCCCCCCCCCCCCC(=O)O)C(=O)O)C(=O)O)C(C)C)C(N)=O
Take B5: the “hIP1 GRPR EC50” value is 3.7 nM.

B6: Peptide 242 (peptide)
peptide: {C20 diacid}-[γGlu][AEEA][AEEA]GRH[Trp(7-Me)]AV[βAla]HL[Nle]-NH2
SMILES: CCCC[C@H](NC(=O)[C@H](CC(C)C)NC(=O)[C@H](Cc1c[nH]cn1)NC(=O)CCNC(=O)[C@@H](NC(=O)[C@H](C)NC(=O)[C@H](Cc1c[nH]c2c(C)cccc12)NC(=O)[C@H](Cc1c[nH]cn1)NC(=O)[C@H](CCCNC(=N)N)NC(=O)CNC(=O)COCCOCCNC(=O)COCCOCCNC(=O)CC[C@H](NC(=O)CCCCCCCCCCCCCCCCCCC(=O)O)C(=O)O)C(C)C)C(N)=O
As to B6, the “hIP1 GRPR EC50” value was 3.9 nM.

B7: Peptide 243 (peptide)
peptide: {C18 diacid}-[γGlu][γGlu][AEEA][AEEA]GRHWAV[βAla]HL[Nle]-NH2
SMILES: CCCC[C@H](NC(=O)[C@H](CC(C)C)NC(=O)[C@H](Cc1c[nH]cn1)NC(=O)CCNC(=O)[C@@H](NC(=O)[C@H](C)NC(=O)[C@H](Cc1c[nH]c2ccccc12)NC(=O)[C@H](Cc1c[nH]cn1)NC(=O)[C@H](CCCNC(=N)N)NC(=O)CNC(=O)COCCOCCNC(=O)COCCOCCNC(=O)CC[C@H](NC(=O)CC[C@H](NC(=O)CCCCCCCCCCCCCCCCC(=O)O)C(=O)O)C(=O)O)C(C)C)C(N)=O
With B7, the “hIP1 GRPR EC50” value stood at 3.6 nM.

B8: Peptide 248 (peptide)
peptide: {C20 diacid}-[γGlu][γGlu][AEEA][AEEA]E[dS]EH[Trp(7-Me)]AV[βAla]HL[Nle]-NH2
SMILES: CCCC[C@H](NC(=O)[C@H](CC(C)C)NC(=O)[C@H](Cc1c[nH]cn1)NC(=O)CCNC(=O)[C@@H](NC(=O)[C@H](C)NC(=O)[C@H](Cc1c[nH]c2c(C)cccc12)NC(=O)[C@H](Cc1c[nH]cn1)NC(=O)[C@H](CCC(=O)O)NC(=O)[C@@H](CO)NC(=O)[C@H](CCC(=O)O)NC(=O)COCCOCCNC(=O)COCCOCCNC(=O)CC[C@H](NC(=O)CC[C@H](NC(=O)CCCCCCCCCCCCCCCCCCC(=O)O)C(=O)O)C(=O)O)C(C)C)C(N)=O
Turning to B8, the “hIP1 GRPR EC50” value was 10.5 nM.
For EEXXGNHWAVGHLX (Palmitoyl-γGlu-γGlu-OEG-OEG-Gly-Asn-His-Trp-Ala-Val-Gly-His-Leu-Nle-NH2) [Peptide 240], the “hIP1 GRPR EC50” value is 11.9 nM.

B9: Peptide 256 (peptide)
peptide: {C20 diacid}-[γGlu]E[AEEA][AEEA]SGRH[Trp(7-Me)]AV[βAla]HL[Nle]-NH2
SMILES: CCCC[C@H](NC(=O)[C@H](CC(C)C)NC(=O)[C@H](Cc1c[nH]cn1)NC(=O)CCNC(=O)[C@@H](NC(=O)[C@H](C)NC(=O)[C@H](Cc1c[nH]c2c(C)cccc12)NC(=O)[C@H](Cc1c[nH]cn1)NC(=O)[C@H](CCCNC(=N)N)NC(=O)CNC(=O)[C@H](CO)NC(=O)COCCOCCNC(=O)COCCOCCNC(=O)[C@H](CCC(=O)O)NC(=O)CC[C@H](NC(=O)CCCCCCCCCCCCCCCCCCC(=O)O)C(=O)O)C(C)C)C(N)=O
For the molecule B9, the “hIP1 GRPR EC50” value was found to be 3.7 nM.

B10: Peptide 14 (peptide)
peptide: Palmitoyl-[d(γGlu)][AEEA][AEEA]GNH[Trp(7-Me)][Aib]V[dA]HL[Nle]-NH2
SMILES: CCCCCCCCCCCCCCCC(=O)N[C@H](CCC(=O)NCCOCCOCC(=O)NCCOCCOCC(=O)NCC(=O)N[C@@H](CC(N)=O)C(=O)N[C@@H](Cc1c[nH]cn1)C(=O)N[C@@H](Cc1c[nH]c2c(C)cccc12)C(=O)NC(C)(C)C(=O)N[C@H](C(=O)N[C@H](C)C(=O)N[C@@H](Cc1c[nH]cn1)C(=O)N[C@@H](CC(C)C)C(=O)N[C@@H](CCCC)C(N)=O)C(C)C)C(=O)O
Regarding B10, the “hIP1 GRPR EC50” value was found to be 10.8 nM.

B11: Peptide 255 (peptide)
peptide: {C20 diacid}-[γGlu]E[AEEA][AEEA]SGEH[Trp(7-Me)]AV[βAla]HL[Nle]-NH2
SMILES: CCCC[C@H](NC(=O)[C@H](CC(C)C)NC(=O)[C@H](Cc1c[nH]cn1)NC(=O)CCNC(=O)[C@@H](NC(=O)[C@H](C)NC(=O)[C@H](Cc1c[nH]c2c(C)cccc12)NC(=O)[C@H](Cc1c[nH]cn1)NC(=O)[C@H](CCC(=O)O)NC(=O)CNC(=O)[C@H](CO)NC(=O)COCCOCCNC(=O)COCCOCCNC(=O)[C@H](CCC(=O)O)NC(=O)CC[C@H](NC(=O)CCCCCCCCCCCCCCCCCCC(=O)O)C(=O)O)C(C)C)C(N)=O
For the molecule B11, the “hIP1 GRPR EC50” value worked out at 6.9 nM.

B12: Peptide 253 (peptide)
peptide: {C20 diacid}-[γGlu][γGlu][AEEA][AEEA]RRH[Trp(7-Me)]AV[βAla]HL[Nle]-NH2
SMILES: CCCC[C@H](NC(=O)[C@H](CC(C)C)NC(=O)[C@H](Cc1c[nH]cn1)NC(=O)CCNC(=O)[C@@H](NC(=O)[C@H](C)NC(=O)[C@H](Cc1c[nH]c2c(C)cccc12)NC(=O)[C@H](Cc1c[nH]cn1)NC(=O)[C@H](CCCNC(=N)N)NC(=O)[C@H](CCCNC(=N)N)NC(=O)COCCOCCNC(=O)COCCOCCNC(=O)CC[C@H](NC(=O)CC[C@H](NC(=O)CCCCCCCCCCCCCCCCCCC(=O)O)C(=O)O)C(=O)O)C(C)C)C(N)=O
Regarding B12, the “hIP1 GRPR EC50” value was 3.7 nM.

B13: Peptide 15 (peptide)
peptide: Palmitoyl-[d(γGlu)][AEEA][AEEA]GNHWAV[dA]HL[Nle][Sar]-NH2
SMILES: CCCCCCCCCCCCCCCC(=O)N[C@H](CCC(=O)NCCOCCOCC(=O)NCCOCCOCC(=O)NCC(=O)N[C@@H](CC(N)=O)C(=O)N[C@@H](Cc1c[nH]cn1)C(=O)N[C@@H](Cc1c[nH]c2ccccc12)C(=O)N[C@@H](C)C(=O)N[C@H](C(=O)N[C@H](C)C(=O)N[C@@H](Cc1c[nH]cn1)C(=O)N[C@@H](CC(C)C)C(=O)N[C@@H](CCCC)C(=O)N(C)CC(N)=O)C(C)C)C(=O)O
B13: the “hIP1 GRPR EC50” value came to 1.4 nM.
The same measure for {C20 diacid}-[γGlu][AEEA][AEEA]GRHWAV[dA]HL[Nle] [Peptide 167]: 114 nM.

B14: Peptide 251 (peptide)
peptide: {C20 diacid}-[γGlu][γGlu][AEEA][AEEA]GQHWAV[βAla]HL[Nle]-NH2
SMILES: CCCC[C@H](NC(=O)[C@H](CC(C)C)NC(=O)[C@H](Cc1c[nH]cn1)NC(=O)CCNC(=O)[C@@H](NC(=O)[C@H](C)NC(=O)[C@H](Cc1c[nH]c2ccccc12)NC(=O)[C@H](Cc1c[nH]cn1)NC(=O)[C@H](CCC(N)=O)NC(=O)CNC(=O)COCCOCCNC(=O)COCCOCCNC(=O)CC[C@H](NC(=O)CC[C@H](NC(=O)CCCCCCCCCCCCCCCCCCC(=O)O)C(=O)O)C(=O)O)C(C)C)C(N)=O
For the molecule B14, the “hIP1 GRPR EC50” value stood at 4.4 nM.
